Patent US12624112 (MABWELL SHANGHAI BIOSCIENCE, dated 2026)

What was measured:
[1] = molecular target: T1, ST2 on the effector cells (KU812, KU812/NF-κB-1#, HUVEC, HMC-1) (human, UniProt Q01638 19-556); assay: cell-based or functional assay
T1 sequence (looked up): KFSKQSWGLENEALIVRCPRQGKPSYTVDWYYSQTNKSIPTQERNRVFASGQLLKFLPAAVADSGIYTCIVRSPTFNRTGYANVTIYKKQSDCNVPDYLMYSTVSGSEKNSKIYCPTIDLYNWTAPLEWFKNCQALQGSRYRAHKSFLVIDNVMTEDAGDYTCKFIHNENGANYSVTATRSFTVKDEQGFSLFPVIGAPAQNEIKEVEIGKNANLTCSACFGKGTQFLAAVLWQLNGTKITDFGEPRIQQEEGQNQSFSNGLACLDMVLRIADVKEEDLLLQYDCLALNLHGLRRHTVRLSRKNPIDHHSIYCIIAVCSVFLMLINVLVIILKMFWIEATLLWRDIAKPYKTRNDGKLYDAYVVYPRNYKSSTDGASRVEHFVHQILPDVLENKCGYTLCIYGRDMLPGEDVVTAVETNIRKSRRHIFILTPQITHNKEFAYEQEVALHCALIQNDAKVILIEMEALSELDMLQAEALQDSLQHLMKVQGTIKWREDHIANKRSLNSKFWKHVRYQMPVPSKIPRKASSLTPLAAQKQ

Human ST2-his [2] = molecular target: T2, Human ST2-his (human, UniProt Q01638-2 19-328, limits assumed); assay: SPR Biacore X100, antibody captured on protein A chip, human ST2-his injected, dissociation at pH 5.5
T2 construct: Expressed in CHO-K1; The printed range starts at Met1; also called human ST2 fused with a 6-histidine tag at the C-terminus
T2 sequence: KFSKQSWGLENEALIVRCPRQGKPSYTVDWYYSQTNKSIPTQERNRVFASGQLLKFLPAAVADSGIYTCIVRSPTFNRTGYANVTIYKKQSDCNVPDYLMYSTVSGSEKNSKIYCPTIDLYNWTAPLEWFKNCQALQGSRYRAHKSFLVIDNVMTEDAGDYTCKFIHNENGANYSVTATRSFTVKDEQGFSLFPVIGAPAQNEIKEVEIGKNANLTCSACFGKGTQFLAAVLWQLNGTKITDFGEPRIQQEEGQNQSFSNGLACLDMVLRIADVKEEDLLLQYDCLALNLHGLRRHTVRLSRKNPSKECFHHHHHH
Outline: (§1)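 Antibody (2 µg/mL) captured 60 s on protein A; human ST2-his injected at six 2-fold dilutions from 20 nM, association 180 s, dissociation 700 s. Kinetics fitted to 1:1 binding model; glycine pH 2.0 regeneration.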

Human ST2-his [3] = molecular target: T2, Human ST2-his; assay: SPR Biacore X100, antibody captured on protein A chip, human ST2-his injected, pH 7.4
Outline: as §1

Human ST2-his [4] = molecular target: T2, Human ST2-his; assay: SPR Biacore X100, ratio of kd at pH 5.5 to kd at pH 7.4
Outline: as §1

[5] = molecular target: T1, ST2 on the effector cells (KU812, …); assay: cell-based or functional assay; remark: listed apart in the source
[6] = molecular target: T1, ST2 on the effector cells (KU812, …); assay: cell-based or functional assay; remark: listed apart in the source
[7] = molecular target: T1, ST2 on the effector cells (KU812, …); assay: cell-based or functional assay; remark: listed apart in the source
[8] = molecular target: T1, ST2 on the effector cells (KU812, …); assay: cell-based or functional assay; remark: listed apart in the source
[9] = molecular target: T1, ST2 on the effector cells (KU812, …); assay: cell-based or functional assay; remark: listed apart in the source
Human ST2-his [10] = molecular target: T2, Human ST2-his; assay: SPR Biacore X100, antibody captured on protein A chip, human ST2-his injected, pH 7.4; pH 7.4
Experimental: The experiment on the interaction between the anti-human ST2 antibodies and human ST2-his was performed using Biacore X100.
Each anti-human ST2 antibody was diluted to 2 µg/mL and captured on the surface of a protein A chip for a capture time of 60 s. Following the antibody capture, a solution of human ST2-his (2-fold gradient dilution from a starting concentration of 20 nM, to obtain 6 concentrations in total) was injected. Association was monitored for 180 s and dissociation was monitored for 700 s, and the sensor surface was regenerated by injecting a solution of glycine at pH 2.0. Kinetic data were analyzed using a simple 1:1 binding model.

B1: Control antibody CNTO7160 (antibody, human IgG4 S228P, kappa, V domains shown)
VH: EVQLLESGGGLVQPGGSLRLSCAASGFTFSIYDMIWVRQAPGKGLEWVSSIRGEGGGTYYADSVKGRFTISRDNSKNTLYLQMNSLRAEDTAVYYCARDPWSTEGSFFVLDYWGQGTLVTVSS
VL: EIVLTQSPATLSLSPGERATLSCRASQSVDDDLAWYQQKPGQAPRLLIYDASNRATGIPARFSGSGSGTDFTLTISSLEPEDFAVYYCQQYITAPLTFGQGTKVEIKR
notes: Known anti-ST2 control antibody
B1 was tested, and the “IC50, inhibition of HUVEC-IL6 production promoted by IL33” value [1] was 2.73 µg/mL, the “Maximum inhibition rate, HUVEC-IL6 production by IL33” value [1] was 66.6% and the “Relative activity, HUVEC-IL6 production by IL33” value [1] was 100%. For the same binder, the Kd (Human ST2-his [2]) was 0.395 nM, the koff (Human ST2-his [2]) was 0.000267 s⁻¹ and the kon (Human ST2-his [2]) was 676000 M⁻¹ s⁻¹. For the same binder, the koff (Human ST2-his [3]) was 0.000175 s⁻¹, the kon (Human ST2-his [3]) was 763000 M⁻¹ s⁻¹ and the “kd ratio of pH 5.5/pH 7.4” value (Human ST2-his [4]) was 1.53. The “IC50, inhibition of KU812-IL5 production promoted by reduced IL33” value [5] was 1.47 µg/mL, the “Maximum inhibition rate, KU812-IL5 production by reduced IL33” value [5] was 97.3% and the “Relative activity, KU812-IL5 production by reduced IL33” value [5] was 100%. For the same binder, the “Maximum inhibition rate, KU812-IL5 production by IL-33” value [6] was 97.5%, the “IC50, inhibition of activation of KU812-NF-κB reporter gene by IL33” value [7] was 0.2 µg/mL and the “Maximum inhibition rate, KU812-NF-κB reporter gene” value [7] was 88.2%. The “IC50, inhibition of HMC-1 IL8 production promoted by IL33” value [8] was 0.101 µg/mL, the “Maximum inhibition rate, HMC-1 IL8 production by IL33” value [8] was 82.3% and the “IC50, inhibition of KU812-IL5 production promoted by oxidized IL33” value [9] was 0.0221 µg/mL. The “Maximum inhibition rate, KU812-IL5 production by oxidized IL33” value [9] was 98.9%, the “Relative activity, KU812-IL5 production by oxidized IL33” value [9] was 100% and the Kd (Human ST2-his [10]) was 0.229 nM.
